Experimental data as given in the supplement of paper PMC12764529.
± gives the half width of the 95% confidence interval.

Test: folding stability dG unfold (combined trypsin and chymotrypsin); higher = more stable
Procedure: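 Folding stability of de novo designed mini-proteins (<80 aa, no Cys; designed by TrROS, TrMRF, ProteinMPNN and the joint model) was measured by cDNA display proteolysis with trypsin and chymotrypsin. Each protease was used at 11 concentrations in a threefold dilution series plus a no-protease condition. K50 was inferred by Bayesian fitting of sequencing counts, and dG unfold was derived against a sequence-predicted unfolded-state K50 (Tsuboyama et al. method). Sequences shown include variable-length N-terminal GS-type padding (SAGGSAGG...) inside a display construct carrying a PA tag. Rows were kept only if the AF2 dimer inter-PAE was >15, to exclude likely homo-oligomers.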

| Sequence | folding stability dG unfold [kcal/mol] |
| --- | --- |
| SAGGSAGGSLRPGEPFKIYSPNGEKFPFKIESVEVDPDGEIPLTITNPNGKPIGPFPYRIKPLSAGGSAGGS [r12_735_TrROS] | < -1 |
| SAGGSAGGSAGGPETRVVYEPLPDGTSKIVEVEAAEDYVTVPVPFPNGGEAVFTVKPGELSAGGSAGGSAGG [r7_829_TrMRF] | < -1 |
| SAGGSAGGSAGGSRIHIEPDNNNYRIKNRNPGGKKEEFPFDSLEDLKDLPPGFPVEIYDSAGGSAGGSAGGS [r4_447_TrROS] | < -1 |
| SAGGAMTPDGTSVTIPYEAKTPTGEASEEEARERIEEELAARPDVALTRVEFEREGDRIKATVYTRVPRSAG [r5_688_JUSTAS] | < -1 |
| SAGGMTKTYDPNGRTITELPDGTVVETTVDPSKPLTKVTTTTVEGDNVVSSTEILQEVSLPETSPYLSAGGS [r8_142_JUSTAS] | < -1 |
| SAGGSAGGSAGMKTFTAPSGEKLVEVTIKTKNKEISVTVPPEEGGEAVAKKYGVSKKDIASAGGSAGGSAGG [r11_1039_JUSTAS] | < -1 |
| SAGGSAGGSASSTVLETEEEPVGKVTTEKVLVPRPDGTPVLRTKLVYRPKDGSLTSETTSLSAGGSAGGSAG [r3_94_JUSTAS] | < -1 |
| SAGDALKEAAKNGKPAELPIRFHFYQIKEPERDKDGGPRYKMKPIHTVEFPIRVDKVDPGNGDIKIDMPSAG [r5_5_TrROS] | < -1 |
| SAGGSAGGSAGWKISVRMPDNGKPRRVPIEIPFDADDPQYFKEIANDLANDGIREVEIYPSAGGSAGGSAGG [r11_196_TrROS] | < -1 |
| SAGGTVEELLRRVPFVEEAVVDVDSGVAYVRVPDRYYVVRVPLVAEPDEDGVLRPRTPVEVEPFAPESAGGS [r16_65_TrMRF] | < -1 |
| SAGGMTLESEVTTLPDGTVVTKTTTVYPDGTVTTKTTTTSVPAGPPTVVRTLPDGSRVRDPTGEWTALSAGG [r13_151_JUSTAS] | < -1 |
| SAGGSAGGSNVEIDTTRTPDRYTVKIRFPDNGKKVEIPFDPGQPPNQAKDRAKELAKKNGIKISAGGSAGGS [r12_764_TrROS] | < -1 |
| SAGYELKILKAEVKDGEIDIPILHPDGRPSTARIKVELVEGEDGIPRPVLKIEIPEEELKNSIPPELLKSAG [r5_462_TrMRF] | < -1 |
| SAGGSAGGSAGKRIIINMPAEQAIDWAREMLPPNQPIEIFNPDHGKTREFPIPPPSPDEKSAGGSAGGSAGG [r11_163_TrROS] | < -1 |
| SAGGSAGGSAGGMIHIDPTPNGWKASVMNPNNGKPREIPFPPDNIPKLIPKGIDYVHIHPSAGGSAGGSAGG [r7_266_TrROS] | < -1 |
| SAGGSAGGSASSTTVPLEIPAPEGAVVELTFPDGTTVKATVTPRPDGSYTLKVGNGEIVAPRSAGGSAGGSA [r18_372_JUSTAS] | < -1 |
| SMITPEDLEALKAAGVELVSRDPNNRVTLFDPATNTPIELEVEEVPPPPPVTFPGNGPSVEERRAWLERRSA [r9_649_JUSTAS] | < -1 |
| SAGGSMVVTTEPDGSVTVTTSASSPEEAKASVIAYLKEQGLKVKSLPVEVPPDGSVTVTLPVEPPLESAGGS [r8_253_JUSTAS] | < -1 |
| SAGGPMREYTIKLPGKKITINEMPNPNGNEMTQVSVRDGGEPKRPVNMPNDNADEFAKKPGIKPDDIVSAGG [r13_108_TrROS] | < -1 |
| SAGGSAGGWIEIDPNDGKLEILYPPGMNPDELTDFIEEFGFPFKPKSVEYNPDNGMRKVEFKFKSAGGSAGG [r6_396_TrROS] | < -1 |

| Sequence | folding stability dG unfold [kcal/mol] |
| --- | --- |
| SAGGSAGGSASPKQVPITIEIQTPNKPRKITFPIPEGQEGGPEEIMDRLADDGNYKIDRITSAGGSAGGSAG [r3_31_TrROS] | < -1 |
| PEPGAVETRETDYIDPNNNNKYKATITTTRDPNSDLATVNTTIKLPNGETLNYSATINPNPGTVTSTTSISS [r1_144_JUSTAS] | -0.628 ± 0.48 |
| SAGGSAGGSAKTYIIPIKDLGPDENGKYHIDIAVEKVKKLFPDENITSVDIDGFEKIGELAESAGGSAGGSA [r18_72_TrMRF] | < -1 |
| SAGGSAGGSAGGSLALVRFPGDDRLFSVPVPEDLEAELVLPTPDGRPVGVRLFRVRDPRESAGGSAGGSAGG [r7_19_TrMRF] | < -1 |
| SAGGSAGGSAGWFYRIEIPHPNGRKRTHYVPDPEEAEDELKEEFGIPPENVKIEPIPPNDSAGGSAGGSAGG [r17_169_TrROS] | < -1 |
| SAGGSAGGSAGGDADKALPVGFELVEAETVELGDNPVLLVRLKGKNGEQLLLVPPDAPISAGGSAGGSAGGS [r10_968_TrMRF] | < -1 |
| SPPYRATVEMEAPNGEPIGEEEFPIKPGKNLMFMMPAPARVRIEIEDPDEGEPREQEYDPRSGMLHFPLKSA [r9_272_TrROS] | < -1 |
| SAGGSAGGSMDLEDMKIKSIYIPDNPIMITFKNKGKHRTRTIPEDNWQILKDLLGDGDITIHPSAGGSAGGS [r12_604_TrROS] | < -1 |
| SAGGSMTLYVRLPDRTVEADEVTVPPNGPALVRYRITDPEGEEPEIVVEPEELAELFGLTPEEIEGSAGGSA [r2_262_TrMRF] | < -1 |
| SAGGPVSEEIVTEKKTLEEDPKNGNTYSEIIMKTPNETIKVKGVKHPSGSTTYTVYTPNSKIATVNVSSAGG [r13_146_JUSTAS] | < -1 |
| SAGGSAGGSMEMETYPLNGFTVMVMRNPNDGRETVQIFMPDNGKPIQMPPEDLQQDPDLIDALSAGGSAGGS [r12_817_TrROS] | < -1 |
| SAGGFYRLKIYNPDNGQPIEFPINWDEVEEAIKNGDLDELAEHYPGAPIDKIEVEPVKPVPPVPPDEKSAGG [r13_629_TrROS] | < -1 |
| SAGGSAGGSAGWRVRVSFPNGNKIEIDEIPPDDEGMTPDQLADEIQKEFPGNGIEVEPVPSAGGSAGGSAGG [r17_42_TrROS] | < -1 |
| SAGGSAGGSATIRPGEPIRIKIKYPNPDGKPQERTYNGNVPPGSTLEELADNFPGYKVEIEKSAGGSAGGSA [r18_279_TrROS] | < -1 |
| SAGGSAGGSAGSTEIGVYKLEGTDKVLVLAKKPNGSEVPVEFPASVTPEEAVEKAKKVVSSAGGSAGGSAGG [r17_161_TrMRF] | < -1 |
| SAMLVVKNKKTKKPIEIKIDPSMTPEEIKKKIEKLPDIPEEQKKEVEEAIELYIKLLENPELAKKFEKESAG [r14_732_TrMRF] | < -1 |
| SSPPPSITVKSISREPATGTVTIPTSHPSGKHISVEWRSPDGTVTVVPPDKPTATLPAAPDWTLTKISVGSA [r9_113_JUSTAS] | < -1 |
| SAGGMKAKIIPFTVAGGAYEPETGELKKPVPVKVTLIEVEPEPDVKVEEIAEEFEKAFPGKGVIVAPSAGGS [r8_30_TrMRF] | < -1 |
| SAGGSAGGSAGGSMITTEEFTDKEEAVEKAKKTPGVEKVEVKTTPSDKYVVIIYKPPLKSAGGSAGGSAGGS [r4_1_JUSTAS] | < -1 |
| SAGGSAGGSPKPMKLRFRNPDNGMPFEVNVDKIDPDGQLRVEIEQPNGKTRKIDNIDNVEIEKSAGGSAGGS [r12_118_TrROS] | < -1 |

| Sequence | folding stability dG unfold [kcal/mol] |
| --- | --- |
| SAGGSAGGSAGGSPELVPVSTEVVELETESVLELEESKVEVKERLEIVVKRLTKEGLGLESAGGSAGGSAGG [r7_485_JUSTAS] | < -1 |
| SAGGSVRAVEVRLYRPEGDFPVIEIDVEAPASFPDDPELRERAARSVAGPLTRELLEELGLVPIGPSAGGSA [r2_306_TrMRF] | -0.793 ± 0.52 |
| SAGGSAGGSAGGSTKSINFKNPSNIRDALREAQDEGVKPVVIYFPDGKTRKIPPGDPITSAGGSAGGSAGGS [r4_260_TrROS] | < -1 |
| SAGGMPLEKIKEIKLVKEKEDGEKEILIVVEDPELVKEGNVEEVKKLAEALAEELKKKGIKVKIEVKPSAGG [r13_243_TrROS_Hall] | < -1 |
| SAGGSAGGSAGGEEERMWMFSVRVPDKPVMFPFDDLEKLAEEKGVPVKIEWARMPADDLKSAGGSAGGSAGG [r7_185_TrROS] | < -1 |
| SAGGSAGGSGMAVVEVDITGPTSTSEEEAQARAEALAAEIAAASDSADVRATVRFSRVPPELPSAGGSAGGS [r12_522_JUSTAS] | < -1 |
| SGKVVGEKTYPVSDGSEGPAKATRDPDSLTFTITNKKGEVIKTIKVPKNAGVEKVFDIKVSPDEFKGLNLSA [r9_215_JUSTAS] | < -1 |
| SAGGSAGGSMKKLLVERKPDGTVTVVDVLPADRSAEELPPEELTSFTLLPFESLEEALKKAAASAGGSAGGS [r12_452_JUSTAS] | < -1 |
| SMELLEAVKKGVKTVTVLLKPGDEEKVKLAAELPVNIVLKASPEISEEVFKKIPGINLTEVKPLSPEELPSA [r9_671_JUSTAS] | < -1 |
| SAGGSAGGSAGMTVEVKKLSTPRYEKIITITTETTVKDPNSAKPLTTETVTTIERDEVSLSAGGSAGGSAGG [r17_124_JUSTAS] | < -1 |
| SAGGSMTTTLDFSDDSTTTITTTPTPDSSSVRSITTTDASGNPLSSTTLNFDPQGNVTETTTSSAPSAGGSA [r2_260_JUSTAS] | < -1 |
| SMTITLEKTLPDGSKVTITIPITKVPGKPLYKATVTVTTTKPGGTPSSKTYTFDFTSEEEAVEKAKEILASA [r9_337_JUSTAS] | > 6 |
| SAPYIRKVTYTTTFYPPDGTPVQSTKPTTEPVDPAEKDTTTTSTTALPDGGSVTTTSTTTVEPAEPALLSAG [r14_268_JUSTAS] | < -1 |
| SAGGSAGGSAGGKKKKIKLFIDHYFDGPPNINPEKIEKELKEKGIDVEVVLNALPKENKKSAGGSAGGSAGG [r7_355_TrMRF] | < -1 |
| SAGGSAGGYEIPIKIKITNPDNNKPVTFEIPIRYDKDNGRPPSPEQIARELAERSPGFKITEIESAGGSAGG [r6_821_TrROS] | < -1 |
| SAGGSAGGSAGGMIYPPDEVLEKTTKVEVELPNETGKTITKTIVTKTYAESGKSTIETAGSAGGSAGGSAGG [r17_266_JUSTAS] | < -1 |
| SAGGFNLKIMPMRMPRRKYDPEDGEPKKPEPVKMWMIQVEAKPGQTVSEIADELQKEFPGDNIMVMPSAGGS [r8_30_TrROS] | < -1 |
| SAGGSAGGSAGMTPEEAEKEAAEKIKNELIAKGYPEAKVEVKSPVKVDEVNNTFTLDIDIKKSAGGSAGGSA [r18_517_JUSTAS] | < -1 |
